# Test results as given in IntAct's records for PubMed 24097060.
# B1: DNA topoisomerase 4 subunit A (Escherichia coli (strain K12)), P0AFI2 (parent)
# chain: MSDMAERLALHEFTENAYLNYSMYVIMDRALPFIGDGLKPVQRRIVYAMSELGLNASAKFKKSARTVGDVLGKYHPHGDSACYEAMVLMAQPFSYRYPLVDGQGNWGAPDDPKSFAAMRYTESRLSKYSELLLSELGQGTADWVPNFDGTLQEPKMLPARLPNILLNGTTGIAVGMATDIPPHNLREVAQAAIALIDQPKTTLDQLLDIVQGPDYPTEAEIITSRAEIRKIYENGRGSVRMRAVWKKEDGAVVISALPHQVSGARVLEQIAAQMRNKKLPMVDDLRDESDHENPTRLVIVPRSNRVDMDQVMNHLFATTDLEKSYRINLNMIGLDGRPAVKNLLEILSEWLVFRRDTVRRRLNYRLEKVLKRLHILEGLLVAFLNIDEVIEIIRNEDEPKPALMSRFGLTETQAEAILELKLRHLAKLEEMKIRGEQSELEKERDQLQGILASERKMNNLLKKELQADAQAYGDDRRSPLQEREEAKAMSEHDMLPSEPVTIVLSQMGWVRSAKGHDIDAPGLNYKAGDSFKAAVKGKSNQPVVFVDSTGRSYAIDPITLPSARGQGEPLTGKLTLPPGATVDHMLMESDDQKLLMASDAGYGFVCTFNDLVARNRAGKALITLPENAHVMPPVVIEDASDMLLAITQAGRMLMFPVSDLPQLSKGKGNKIINIPSAEAARGEDGLAQLYVLPPQSTLTIHVGKRKIKLRPEELQKVTGERGRRGTLMRGLQRIDRVEIDSPRRASSGDSEE
# partner: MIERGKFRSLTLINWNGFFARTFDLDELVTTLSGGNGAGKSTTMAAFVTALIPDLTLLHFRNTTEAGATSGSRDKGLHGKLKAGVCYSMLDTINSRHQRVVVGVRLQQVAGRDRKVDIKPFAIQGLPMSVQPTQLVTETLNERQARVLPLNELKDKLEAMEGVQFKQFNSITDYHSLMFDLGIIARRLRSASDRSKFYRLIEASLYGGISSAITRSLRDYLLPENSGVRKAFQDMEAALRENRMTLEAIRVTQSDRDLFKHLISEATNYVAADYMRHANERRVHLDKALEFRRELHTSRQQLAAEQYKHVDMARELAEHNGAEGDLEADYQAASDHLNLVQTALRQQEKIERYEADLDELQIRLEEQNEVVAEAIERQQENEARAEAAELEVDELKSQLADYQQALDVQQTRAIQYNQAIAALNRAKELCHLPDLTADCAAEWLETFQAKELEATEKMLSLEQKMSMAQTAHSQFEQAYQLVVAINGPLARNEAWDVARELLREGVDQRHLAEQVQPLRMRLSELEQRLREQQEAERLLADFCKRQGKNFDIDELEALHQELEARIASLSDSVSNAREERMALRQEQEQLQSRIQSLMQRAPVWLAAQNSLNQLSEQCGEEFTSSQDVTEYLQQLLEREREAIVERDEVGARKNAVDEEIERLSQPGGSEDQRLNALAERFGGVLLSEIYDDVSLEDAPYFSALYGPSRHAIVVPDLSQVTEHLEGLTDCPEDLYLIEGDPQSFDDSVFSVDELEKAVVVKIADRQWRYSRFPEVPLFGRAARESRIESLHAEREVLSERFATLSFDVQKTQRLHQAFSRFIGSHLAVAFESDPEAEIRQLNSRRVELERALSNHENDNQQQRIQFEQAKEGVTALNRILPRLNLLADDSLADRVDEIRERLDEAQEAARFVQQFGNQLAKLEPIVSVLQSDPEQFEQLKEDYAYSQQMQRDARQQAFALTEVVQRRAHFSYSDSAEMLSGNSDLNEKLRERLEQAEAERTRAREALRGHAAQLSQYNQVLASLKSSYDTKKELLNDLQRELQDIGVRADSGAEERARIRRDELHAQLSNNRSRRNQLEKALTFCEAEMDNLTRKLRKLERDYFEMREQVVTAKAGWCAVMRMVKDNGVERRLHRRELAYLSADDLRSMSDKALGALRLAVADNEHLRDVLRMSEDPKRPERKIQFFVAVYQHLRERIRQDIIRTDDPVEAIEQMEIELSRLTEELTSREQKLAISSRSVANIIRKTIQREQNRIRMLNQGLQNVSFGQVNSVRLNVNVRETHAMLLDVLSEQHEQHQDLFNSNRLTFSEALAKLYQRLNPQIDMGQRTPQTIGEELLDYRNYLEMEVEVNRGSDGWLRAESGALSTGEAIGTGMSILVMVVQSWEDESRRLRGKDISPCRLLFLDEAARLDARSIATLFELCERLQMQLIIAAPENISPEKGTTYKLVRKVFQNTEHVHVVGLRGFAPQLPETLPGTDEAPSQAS
# B2: Chromosome partition protein MukB (Escherichia coli (strain K12)), P22523 (parent)
# chain: B1 partner
# partner: B1 chain
# Variants of: B1
# Details: with mukb_ecoli mukB
row,effect of a mutation on the interaction,Variant
1,disrupting interaction,R705D;R729D

# Variants of: B2
# Details: with parc_ecoli parC
row,effect of a mutation on the interaction,Variant
1,decreasing interaction,D692F

# Variants of: B2
# Details: with parc_ecoli parC
# Remark: another data set of the same source
row,effect of a mutation on the interaction,Variant
1,disrupting interaction,D692F;D746R;E753R
